Data set [1] relates to HeLa Kyoto. The data set is described as follows: thermal stability score vs G1/S (z-score of summed log2 fold changes over temperatures); higher = more thermally stable than in G1/S.
Data set [2] has as its system HeLa Kyoto. Put plainly: solubility in G1/S (NP-40 vs SDS abundance) (log2 ratio); higher = more soluble. As to conditions: cell cycle stage: G1/S.
The test system of data set [3] is HeLa Kyoto. Put plainly: melting temperature (median over replicates), in situ; higher = more thermally stable.
For data set [4], the system named is HeLa Kyoto. The data set is described as follows: solubility change mitosis vs G1/S (difference of NP-40 vs SDS log2 ratios) (log2 ratio difference); higher = more soluble in mitosis.
Where [5] appears, read: cell cycle stage: early G1 (4.5 h after nocodazole release).
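For melting temperature (median over replicates), in situ in this document: HeLa Kyoto cells synchronized by double thymidine or nocodazole block, proteins quantified by TMT10plex mass spectrometry, three independent biological replicates.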
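For solubility change mitosis vs G1/S (difference of NP-40 vs SDS log2 ratios) in this document: synchronized HeLa Kyoto cells (double thymidine block for G1/S, nocodazole release for mitosis), protein amounts in NP-40 versus SDS lysates quantified by mass spectrometry, three biological replicates.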
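For solubility in G1/S (NP-40 vs SDS abundance) in this document: HeLa Kyoto cells arrested at G1/S by double thymidine block, proteins quantified by TMT10plex mass spectrometry in mild NP-40 versus SDS extracts, three biological replicates.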
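For thermal stability score vs G1/S (z-score of summed log2 fold changes over temperatures) in this document: synchronized HeLa Kyoto cells, proteins quantified by TMT10plex mass spectrometry, three biological replicates, mitosis taken 0.5 h after nocodazole release, G1/S directly after double thymidine block.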

Consider “MAAVSGLVRRPLREVSGLLKRRFHWTAPAALQVTVRDAINQGMDEELERDEKVFLLGEEVAQYDGAYKVSRGLWKKYGDKRIIDTPISEMGFAGIAVGAAMAGLRPICEFMTFNFSMQAIDQVINSAAKTYYMSGGLQPVPIVFRGPNGASAGVAAQHSQCFAAWYGHCPGLKVVSPWNSEDAKGLIKSAIRDNNPVVVLENELMYGVPFEFPPEAQSKDFLIPIGKAKIERQGTHITVVSHSRPVGHCLEAAAVLSKEGVECEVINMRTIRPMDMETIEASVMKTNHLVTVEGGWPQFGVGAEICARIMEGPAFNFLDAPAVRVTGADVPMPYAKILEDNSIPQVKDIIFAIKKTLNI [PDHB]”, for which the figures for the thermal stability score with HeLa Kyoto [1] (setting [5]) and with HeLa Kyoto [1] (cell cycle stage: mitosis) were -1.24 and -2.38, respectively. Also, the “solubility in G1/S (log2)” value in the data set on HeLa Kyoto [2] stood at 0.196. Also, the melting temperature with HeLa Kyoto [3] (cell cycle stage: G1/S) worked out at 51.7 °C; in the data set on HeLa Kyoto [3] (cell cycle stage: mitosis) it was 51.4 °C. For the same sequence, the “solubility change mitosis (log2)” value in the data set on HeLa Kyoto [4] was -0.117.

For “MAAWGCVAALGAARGLCWRAARAAAGLQGRPARRCYAVGPAQSPPTFGFLLDIDGVLVRGHRVIPAALKAFRRLVNSQGQLRVPVVFVTNAGNILQHSKAQELSALLGCEVDADQVILSHSPMKLFSEYHEKRMLVSGQGPVMENAQGLGFRNVVTVDELRMAFPLLDMVDLERRLKTTPLPRNDFPRIEGVLLLGEPVRWETSLQLIMDVLLSNGSPGAGLATPPYPHLPVLASNMDLLWMAEAKMPRFGHGTFLLCLETIYQKVTGKELRYEGLMGKPSILTYQYAEDLIRRQAERRGWAAPIRKLYAVGDNPMSDVYGANLFHQYLQKATHDGAPELGAGGTRQQQPSASQSCISILVCTGVYNPRNPQSTEPVLGGGEPPFHGHRDLCFSPGLMEASHVVNDVNEAVQLVFRKEGWALE [CECR5]”, the thermal stability score with HeLa Kyoto [1] (setting [5]) came to 0.291; with HeLa Kyoto [1] (cell cycle stage: mitosis), 1.28. The “solubility in G1/S (log2)” value in the data set on HeLa Kyoto [2] came out at 0.262. Further, the melting temperature with HeLa Kyoto [3] (cell cycle stage: G1/S) stood at 50.8 °C; with HeLa Kyoto [3] (cell cycle stage: mitosis), 50.2 °C. The “solubility change mitosis (log2)” value in the data set on HeLa Kyoto [4] is -0.159.

On to “MAAYKLVLIRHGESAWNLENRFSGWYDADLSPAGHEEAKRGGQALRDAGYEFDICFTSVQKRAIRTLWTVLDAIDQMWLPVVRTWRLNERHYGGLTGLNKAETAAKHGEAQVKIWRRSYDVPPPPMEPDHPFYSNISKDRRYADLTEDQLPSCESLKDTIARALPFWNEEIVPQIKEGKRVLIAAHGNSLRGIVKHLEGLSEEAIMELNLPTGIPIVYELDKNLKPIKPMQFLGDEETVRKAMEAVAAQGKAKK [PGAM1]”, for which the thermal stability score with HeLa Kyoto [1] (setting [5]) is -0.0829; in the data set with HeLa Kyoto [1] (cell cycle stage: mitosis), -2.07. The “solubility in G1/S (log2)” value with HeLa Kyoto [2] was determined as 0.324. Also, the melting temperature with HeLa Kyoto [3] (cell cycle stage: G1/S) was determined as 55.7 °C; with HeLa Kyoto [3] (cell cycle stage: mitosis) it was 57.8 °C. Besides, in the data set with HeLa Kyoto [4], the “solubility change mitosis (log2)” value is -0.15.

On to “MACAAARSPADQDRFICIYPAYLNNKKTIAEGRRIPISKAVENPTATEIQDVCSAVGLNVFLEKNKMYSREWNRDVQYRGRVRVQLKQEDGSLCLVQFPSRKSVMLYAAEMIPKLKTRTQKTGGADQSLQQGEGSKKGKGKKKK [SRP19]”, for which the thermal stability score is 0.816 with HeLa Kyoto [1] (setting [5]) and -0.116 with HeLa Kyoto [1] (cell cycle stage: mitosis). For the same sequence, the “solubility in G1/S (log2)” value in the data set on HeLa Kyoto [2] was determined as 0.299. In addition, the melting temperature in the data set with HeLa Kyoto [3] (cell cycle stage: G1/S) and in the data set with HeLa Kyoto [3] (cell cycle stage: mitosis) was 50.8 °C each time. Also, in the data set on HeLa Kyoto [4], the “solubility change mitosis (log2)” value worked out at 0.161.

As to “MACAAVMIPGLLRCSVGAIRIEAASLRLTLSTLRHLTLTSIMKSKRKTDHMERTASVLRREIVSAAKVCGAASESPSVKSLRLLVADQDFSFKAGQWVDFFIPGVSVVGGFSICSSPRLLEQERVIELAVKYTNHPPALWVHNTCTLDCEVAVRVGGEFFFDPQPADASRNLVLIAGGVGINPLLSILRHAADLLREQANKRNGYEIGTIKLFYSAKNTSELLFKKNILDLVNEFPEKIACSLHVTKQTTQINAELKPYITEGRITEKEIRDHISKETLFYICGPPPMTDFFSKQLENNHVPKEHICFEKWW [OXNAD1]”, the results for the thermal stability score in the data set on HeLa Kyoto [1] (setting [5]) and in the data set on HeLa Kyoto [1] (cell cycle stage: mitosis) were -0.605 and -0.938, respectively. Moreover, the “solubility in G1/S (log2)” value in the data set with HeLa Kyoto [2] is -0.0285. In addition, the melting temperature in the data set on HeLa Kyoto [3] (cell cycle stage: G1/S) came to 53.9 °C; with HeLa Kyoto [3] (cell cycle stage: mitosis), 54.7 °C. In addition, the “solubility change mitosis (log2)” value in the data set with HeLa Kyoto [4] is -0.0113.

“MACRGGAGNGHRASATLSRVSPGSLYTCRTRTHNICMVSDFFYPNMGGVESHIYQLSQCLIERGHKVIIVTHAYGNRKGIRYLTSGLKVYYLPLKVMYNQSTATTLFHSLPLLRYIFVRERVTIIHSHSSFSAMAHDALFHAKTMGLQTVFTDHSLFGFADVSSVLTNKLLTVSLCDTNHIICVSYTSKENTVLRAALNPEIVSVIPNAVDPTDFTPDPFRRHDSITIVVVSRLVYRKGIDLLSGIIPELCQKYPDLNFIIGGEGPKRIILEEVRERYQLHDRVRLLGALEHKDVRNVLVQGHIFLNTSLTEAFCMAIVEAASCGLQVVSTRVGGIPEVLPENLIILCEPSVKSLCEGLEKAIFQLKSGTLPAPENIHNIVKTFYTWRNVAERTEKVYDRVSVEAVLPMDKRLDRLISHCGPVTGYIFALLAVFNFLFLIFLRWMTPDSIIDVAIDATGPRGAWTNNYSHSKRGGENNEISETR [PIGA]”: the results for the thermal stability score with HeLa Kyoto [1] (setting [5]) and in the data set on HeLa Kyoto [1] (cell cycle stage: mitosis) were -0.383 and -0.682, respectively. In addition, the “solubility in G1/S (log2)” value in the data set on HeLa Kyoto [2] is -0.107. Besides, the figures for the melting temperature in the data set on HeLa Kyoto [3] (cell cycle stage: G1/S) and in the data set on HeLa Kyoto [3] (cell cycle stage: mitosis) were 55 °C and 53.6 °C, respectively. In addition, the “solubility change mitosis (log2)” value with HeLa Kyoto [4] was -0.133.

With “MADAASQVLLGSGLTILSQPLMYVKVLIQVGYEPLPPTIGRNIFGRQVCQLPGLFSYAQHIASIDGRRGLFTGLTPRLCSGVLGTVVHGKVLQHYQESDKGEELGPGNVQKEVSSSFDHVIKETTREMIARSAATLITHPFHVITLRSMVQFIGRESKYCGLCDSIITIYREEGILGFFAGLVPRLLGDILSLWLCNSLAYLVNTYALDSGVSTMNEMKSYSQAVTGFFASMLTYPFVLVSNLMAVNNCGLAGGCPPYSPIYTSWIDCWCMLQKEGNMSRGNSLFFRKVPFGKTYCCDLKMLI [MTCH2]”, the thermal stability score in the data set with HeLa Kyoto [1] (setting [5]) is -2.66; in the data set with HeLa Kyoto [1] (cell cycle stage: mitosis) it was -2.99. Further, in the data set with HeLa Kyoto [2], the “solubility in G1/S (log2)” value came to 0.00924. In addition, the melting temperature was determined as 56.6 °C with HeLa Kyoto [3] (cell cycle stage: G1/S) and 57 °C in the data set on HeLa Kyoto [3] (cell cycle stage: mitosis). In the data set on HeLa Kyoto [4], the “solubility change mitosis (log2)” value was -0.018.

The values above are taken from the supplement of paper PMC5998384.
